Key:
[1] = target: T1, biotin-labeled human ADM (human, not fully specified; biotin label (named human ADM-C-biotin in Example 1.4; position of the biotin not stated for the other lots)); assay: ELISA of E. coli culture supernatant of phage library monoclones
T1 construct: Synthetic peptide; also called human ADM-C-biotin; hADM-Biotin
T1 peptide: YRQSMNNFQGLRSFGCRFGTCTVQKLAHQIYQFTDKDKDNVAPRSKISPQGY

[2] = target: T1, biotin-labeled human ADM; assay: flow staining of yeast-displayed Fab at graded antigen concentrations
From the text: (§1) For the first round of screening products of JYYDL227, 46 monoclones were picked for sequencing, and finally, a yeast monoclonal colony with a unique sequence was obtained for EC₅₀ identification by flow staining.
(§2) According to the staining results of the clones (as shown in Table 6) in combination with the similarity of the sequences of the clones, the monoclones expressing antibodies Ab2004.Am31 (with amino acid sequences of variable regions set forth in SEQ ID NOs: 31 and 36), Ab2004.Am32 (with amino acid sequences of variable regions set forth in SEQ ID NOs: 31 and 37), Ab2004.Am33 (with amino acid sequences of variable regions set forth in SEQ ID NOs: 32 and 36), Ab2004.Am34 (with amino acid sequences of variable regions set forth in SEQ ID NOs: 33 and 38), Ab2004.Am35 (with amino acid sequences of variable regions set forth in SEQ ID NOs: 31 and 38), Ab2004.Am36 (with amino acid sequences of variable regions set forth in SEQ ID NOs: 31 and 39), Ab2004.Am37 (with amino acid sequences of variable regions set forth in SEQ ID NOs: 34 and 38), Ab2004.Am38 (with amino acid sequences of variable regions set forth in SEQ ID NOs: 34 and 40), Ab2004.Am39 (with amino acid sequences of variable regions set forth in SEQ ID NOs: 33 and 41), and Ab2004.Am40 (with amino acid sequences of variable regions set forth in SEQ ID NOs: 31 and 42) were finally selected. The amino acid sequences of the Chothia-numbered CDRs of the candidate antibodies are shown in Table 7, and the amino acid sequences of the light and heavy chain variable regions of the candidate antibodies are shown in Table 8.

[3] = target: T2, biotin-labeled mouse ADM (mouse, not fully specified; biotin label (named mouse ADM-C-biotin in Example 1.4; position of the biotin not stated for the other lots)); assay: as above
T2 construct: Synthetic peptide; also called mouse ADM-C-biotin; mADM-Biotin
T2 peptide: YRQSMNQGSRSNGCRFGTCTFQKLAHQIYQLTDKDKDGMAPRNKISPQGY
From the text: as §1, §2

[4] = target: T3, 21 amino acid polypeptide at the N-terminus of human ADM (human); assay: ELISA, peptide coated at 1.0 ug/mL, hybridoma supernatant
T3 construct: Coated on the ELISA plate in the hybridoma screening; also called YY-21
T3 peptide: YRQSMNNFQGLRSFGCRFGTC
Procedure: (§3) YY-21 or YY-19 was diluted with PBS to 1.0 μg/mL, added to a 96-well plate (Corning, 9018), with 100 μL/well, and incubated at 4° C. overnight for coating. The ELISA plate was washed 3 times with a washing buffer (PBS+0.05% Tween 20) on an automatic plate washer the next day. 300 μL of a blocking buffer (PBS+0.05% Tween 20+1% BSA) was added to each well, and the plate was placed at room temperature for 1 h for blocking. The plate was then washed 3 times with the washing buffer on the automatic plate washer, and the hybridoma supernatant was added to each well of the ELISA plate. The plate was placed and incubated at room temperature for 1 h, and then washed 3 times according to the method described above. Goat Anti-mouse IgG Fc-HRP (Sigma, A0168) or Goat Anti-rat-IgG-HRP (Sigma, A5795) was diluted in 1:5000 with the blocking buffer, with 100 μL/well. The plate was placed and incubated at room temperature for 1 h. The plate was then washed 3 times according to the method described above. A TMB substrate solution was added with 100 μL/well and incubated at room temperature for 10 min, then 50 μL of 1.0 M hydrochloric acid was added to each well to terminate the reaction, and the plate was read by a microplate reader at OD₄₅₀ nm. […]

[5] = target: T4, 19 amino acid polypeptide at the N-terminus of mouse ADM (mouse); assay: as above
T4 construct: Coated on the ELISA plate in the hybridoma screening; also called YY-19
T4 peptide: YRQSMNQGSRSNGCRFGTC
Procedure: as §3

[6] = target: T1, biotin-labeled human ADM; assay: BLI (Octet RED96e), biotinylated antigen on streptavidin sensor, antibody 100 nM, 1:1 fit
Procedure: (§4) The affinity of the candidate antibody for biotin-labeled human ADM (human ADM-C-biotin for short, the sequence of human ADM is set forth in SEQ ID NO: 4) and mouse ADM (mouse ADM-C-biotin for short, the sequence of mouse ADM is set forth in SEQ ID NO: 5) was determined by adopting Octet RED96e (Fortebio). The antigens and antibody were all diluted with 1× PBST, the concentration of the antigen used was 2 μg/mL, and the working concentration of the antibody used was 100 nM.
(§5) First, the sample was added to a 96-well plate (Greiner bio-one, 655209) with a system of 200 μL/well. Software parameters were then set, the plate temperature was set to 30° C., and the standard kinetic signal was collected at a frequency of 5.0 HZ. Next, a streptavidin sensor (Fortébio, Cat. No. 18-5020) was pre-wetted with 1× PBST for 10 min and then tested on a machine. Each cycle included the following steps: 1) immersing the sensor in a buffer for 180 s to stabilize the baseline; 2) immobilizing the antigen for 10 s, allowing the antigen to bind to the sensor, and controlling the binding amount of the antigen between 0.5 nm and 1.0 nm; 3) immersing the sensor in the buffer for 180 s; 4) binding the antigen to the antibody for the binding time of 180 s; and 5) dissociating the antigen and the antibody for 10 min.
(§6) The equilibrium dissociation constant (KD) of the antibody was calculated by measuring the association rate (Kon) and the dissociation rate (Koff) of the antigen-antibody in a 1:1 binding manner by adopting the Data Analysis 12.0 software from Fortebio.

[7] = target: T2, biotin-labeled mouse ADM; assay: as above
Procedure: as §4, §5, §6

B1: monoclone 1F12 (from the fully human single-chain phage antibody library) (scFv, V domains shown)
VH: QVQLVQSGAEVKKPGASVKVSCKASGYTFTSYGISWVRQAPGQGLEWMGWISAYNGNTNYAQKLQGRVTMTRDTSTSTAYMELRSLRSDDTAVYYCAREGRSGGSFDIWGQGTMVTVSS
VL: DIQMTQSPSSLSASVGDRVTITCRASQGISSYLAWYQQKPGKAPKLLIYDASNLETGVPSRFSGSGSGTDFTFTISSLQPEDIATYYCQQYDNLPLTFGGGTKVEIK
notes: Tested as E. coli culture supernatant of a clone of a single-chain library
Does B1 bind [1]?
Result: binds

B2: Ab2004.Am40 (Fab displayed on yeast) (Fab, V domains shown)
VH: QVQLVQSGAEVKKPGASVKVSCKASGYTFTQYGIAWVRQAPGQGLEWMGWISAYQGNTNYAQKLQGRVTMTRDTSTSTAYMELRSLRSDDTAVYYCAREGRWGGSFNIWGQGTMVTVSS
VL: DIQMTQSPSSLSASVGDRVTITCRASQGISSYLAWYQQKPGKAPKLLIYDASNLETGVPSRFSGSGSGTDFTFTISSLQPEDIATYYCQQYDDLPLSFGGGTKVEIK
notes: Yeast monoclonal colony of library JYYDL227 (Fab display)
Which results are given for B2?
EC50 [2]: 0.5 nM; EC50 [3]: 2.5 nM

B3: Ab2004.Am39 (Fab displayed on yeast) (Fab, V domains shown)
VH: QVQLVQSGAEVKKPGASVKVSCKASGYTFTHYGIAWVRQAPGQGLEWMGWISAYQGNTNYAQKLQGRVTMTRDTSTSTAYMELRSLRSDDTAVYYCAREGRWGGSFNIWGQGTMVTVSS
VL: DIQMTQSPSSLSASVGDRVTITCRASQGISSYLAWYQQKPGKAPKLLIYDASNLETGVPSRFSGSGSGTDFTFTISSLQPEDIATYYCQQYDDLDLTFGGGTKVEIK
notes: as for B2
With B3 as the binder, how does the EC50 [2] read?
Its EC50 is 0.86 nM.

What about the EC50 [3] of the same binder?
The EC50 was 4.23 nM.

B4: hybridoma clone 40E12 (antibody, V domains shown)
VH: QIQLVQSGPELRKPGETVKISCKASGYAFTTFGMSWIKQAPGQGLKWMGWINTYSRVPKYTDDFKGRFAFSLEISATTAYLLINNLKNGDTATYFCARGYGGEGGLGFSGQGTTLTVSS
VL: DVLMTQTPFSLPVSLGDQASISCRSSQSIIDSDGNTYLEWYLQKPGQSPKLLIYKVSNRFSGVPDRFSGSGSGTDFTLRISRVEAEDLGVYYCFQGSHFPYTFAGGTKLELK
notes: Murine hybridoma antibody purified on protein A; also called candidate antibody 40E12
Does B4 bind [4]?
Result: binds

Does B4 bind [5]?
Result: binds

And the Kd [6]?
Its Kd is 0.314 nM.

What about the koff [6] of the same binder?
The koff was 0.000109 s⁻¹.

What about the kon [6] of the same binder?
Its kon is 347000 M⁻¹ s⁻¹.

What about the Kd [7] of the same binder?
The Kd was 0.236 nM.

And the koff [7]?
Its koff is 8.9e-05 s⁻¹.

And the kon [7]?
Its kon is 377000 M⁻¹ s⁻¹.
